Usually stoichiometry N stands for a count of units in the complex or per binding partner.

In assay [1] the target is C157S mutant of hDHHC3-Δ35 (hDHHS3-Δ35), C-terminal Twin-Strep tagged (human) (UniProt Q9NYG2). Kind of assay: SDS-PAGE; purified hDHHS3-Δ35 on SDS-PAGE; dimeric band at ≈50 kDa (Figure S5A).
For assay [2] the target is unchanged. Kind of assay: cryo-EM 2D classification; hDHHS3-Δ35 in GDN micelles from SEC peak 1; 200 kV Talos Arctica; 2D class averages with RELION 3; no 3D reconstruction.

With “C157S mutant of hDHHC3-Δ35 (hDHHS3-Δ35), C-terminal Twin-Strep tagged (from UniProt Q9NYG2-2 36-299) (enzyme)”, the oligomeric state (number of subunits) in assay [1] is 2. Further, in assay [2], the stoichiometry N was 2.
